The target of test [1] is T1, human ASC (apoptosis associated speck-like protein containing a caspase-recruitment domain) (human, UniProt Q9ULZ3 1-195).
T1 construct: recombinant hASC in ELISA and SPR; endogenous ASC (cytoplasmic or specks) in Western blot and immunofluorescence; also called hASC; PYCARD
Nature of the test: ELISA, coated hASC.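 Further: antibody binding to plate-coated recombinant human ASC, read as phosphatase substrate absorbance, EC50 from four-parameter variable-slope fit.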

A further test concerns the target T2, PYD domain of human ASC (human, UniProt Q9ULZ3 1-91, limits assumed).
T2 construct: biotinylated in BLI; His/MBP-tagged in the alanine ELISA; also called hPYD; human PYD
Kind of test: ELISA, coated hPYD.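 Further: monoclonal antibody binding to plate-coated human ASC PYD measured by ELISA, with a phosphatase substrate absorbance read-out and EC50 from a variable slope curve fit.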

Another test has as its target T3, mouse ASC (mouse, UniProt Q9EPB4 1-193).
T3 construct: recombinant mASC in ELISA and SPR; endogenous ASC of J774.A1 cells in Western blot and immunofluorescence; also called mASC
T3 sequence: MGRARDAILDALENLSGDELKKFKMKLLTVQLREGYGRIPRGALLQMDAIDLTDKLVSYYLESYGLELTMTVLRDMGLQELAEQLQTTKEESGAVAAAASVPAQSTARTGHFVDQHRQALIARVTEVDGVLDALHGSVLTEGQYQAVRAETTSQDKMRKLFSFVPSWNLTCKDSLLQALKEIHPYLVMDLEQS
Kind of test: ELISA, coated mASC.

For another test, the target named is T4, CARD domain of human ASC (human, UniProt Q9ULZ3 107-195).
T4 construct: biotinylated in BLI; also called hCARD; human CARD
T4 sequence: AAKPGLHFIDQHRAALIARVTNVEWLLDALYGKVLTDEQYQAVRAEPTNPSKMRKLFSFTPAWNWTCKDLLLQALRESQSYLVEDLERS
Kind of test: ELISA, coated hCARD.

Test [2] addresses T1, human ASC (apoptosis associated …). Kind of test: SPR affinity mode, mAb captured.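 Further: Single-cycle SPR kinetics with mAbs captured on goat anti-mouse antibody, double-referenced against blank flow cell and buffer cycle, fitted by a 1:1 kinetic model.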
The target is the same in test [3]. Kind of test: SPR avidity mode, ASC immobilized.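 Further: Single-cycle SPR kinetics on Biacore T200, antibodies injected at 1.2–100 nM (3-fold steps), 300 s association, 900 s dissociation, double-referenced, 1:1 kinetic model fit.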

14 molecules from US20250320284A1 (AC IMMUNE, published 2025) can be followed below.

Where only a bound is given, the exact number is not on record here.

T2 sequence (Q9ULZ3 1-91 limits assumed): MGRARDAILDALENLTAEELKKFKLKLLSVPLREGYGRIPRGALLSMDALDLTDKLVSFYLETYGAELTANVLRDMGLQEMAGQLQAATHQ

B1: ACI-8016-11A3F3-AB1 (antibody, V domains shown)
VH: QVQLQQSGAELARPGTSVKLSCKASGYTFISFGLSWVKQRTGQGLEWIGEIYPRIDNPYYNEKFKGKAILTADKSSSTAYMELRSLTSEDSAVYFCARYFTKGNYFDYWGQGTTLTVSS
VL: DIQMTQSPASLAASVGETVTITCRASENIYYSLAWYQQKQGKSPQVLIYYANSLEDGVPSRFSGSGSGTQYSLKINSMQPEDTATYFCKQAYDVPFTFGTGTKLELK
notes: also called 936.11A3F3
On to B1, for which the EC50 in test [1] came out at 0.11 nM; with mouse ASC, 0.63 nM; with CARD domain of human ASC it was 0.12 nM. Besides, the binding result in the test with PYD domain of human ASC was “no binding”.

B2: ACI-8016-7G3B5-AB1 (antibody, V domains shown)
VH: EVQLQQSVAELVRPGASVKLSCTASGFNIKNTYMHWVKQRPEQGLEWIGRIDPANGNTKYVPKFQGKATITADTSSKTAYLQLSSLTSEDTAIYYCTRWGFDKDGVVYAMDYWGQGTSVTVSS
VL: DVVLTQSPATLSVTPGDSVSLSCRASQSIYNNLHWYQQKSHESPRLLVKYASQSISGIPSRFSGSGSGTDFTLSINSVETEDFGMYFCQQSNSWPLTFGAGTKLELK
notes: also called 936.7G3B5
For the molecule B2, the EC50 in test [1] was found to be 0.19 nM; with PYD domain of human ASC it was 0.16 nM; with mouse ASC, 0.17 nM. Further, the binding result with CARD domain of human ASC is “no binding”.

B3: ACI-8016-2A1B12-AB1 (antibody, V domains shown)
VH: EVQLQQSGAELVRPGSSVKMSCETSGYTFTTYGLTWVKQRPGQGLEWIGYIYVGNGYTEYNEKFKDKATLTSDTSSSIVYMQLSSLTSEDSAIYFCARLGLRRHFDYWGQGTTLTVSS
VL: AIQMTQTTSSLSASLGDRVTISCRASQDISNYLHWYQQKPDGTVKLLIFFTSGLRSGVPSRFSGSGSGTDYSLTISNLEQEDIATYFCQQSILLPWTFGGGTKLEIK
notes: also called 936.2A1B12
On to B3, for which the 50% effective concentration (EC50) in test [1] is 0.17 nM; in the test with PYD domain of human ASC, 3.34 nM; with mouse ASC, 1.56 nM; with CARD domain of human ASC, 0.13 nM.

B4: ACI-8016-2602H6F10-AB1 (antibody, V domains shown)
VH: QVQLQQSGAELARPGASVKLSCKASGFSFTSYGISWVKQRTGQGLEWIGQIYLRSSNTYYNEKFKDKATLTADKSSSTVYMELRSLTSEDSAVYFCARYYGSSSDYWGQGTTLTVSS
VL: DIQMNQSPSSLSASLGDTITINCHASQNINVWLSWYQQKPGNIPKVLIYQASNLQTGVPTRFSGSGSGTGFTLTISRLQPEDIATYYCQQGQRYPWTFGGGTKLEIK
In the case of B4, the EC50 in test [1] came to 11.1 nM; with PYD domain of human ASC, 2.52 nM; with mouse ASC, 4.52 nM. The binding result with CARD domain of human ASC is given as “no binding”.

B5: ACI-8016-27A1G4-AB1 (antibody, V domains shown)
VH: QVQLQQSDAELVKPGASVKISCKVSGYTFTDHTIHWMRQRPEQGLEWIGYIYPGDASSYYNEKFKGKATLTADQSSNTAYIQVNSLTSEDSAVYFCARPLYSYASYYWFAYWGQGTLVTVSA
VL: DIQMNQSPSSLSASLGDTITITCHASQNINVWLTWYQQKPGNIPKLLIYKASNLHTDVPSRFSGSGSGTGFTLTISSLQPEDIATYYCQQGQSYPLTFGGGTKLEIK
notes: also called 936.27A1G4
As for B5, the 50% effective concentration (EC50) in test [1] worked out at 0.15 nM; with mouse ASC it was 0.11 nM; with CARD domain of human ASC, 0.13 nM. In the test with PYD domain of human ASC, the binding result is reported as “no binding”.

B6: ACI-8016-207E8B2-AB1 (antibody, V domains shown)
VH: QVQLQQSGAELAKPGASVKLSCKASGYTFTSYWMHWVKQRPGQGLEWIGYINPSSGYTKCNQKFKDKATLTADKSSSTAYMQLSSLTYEDSAVYYCVFPFDYDGFDYWGQGTTLTVSS
VL: DVLMTQTPLSLPVSLGDQASISCRSSQSIVHSNGNTYLEWYLQKPGQSPKLLIYKVSNRFSGVPDRFSGSGSGTVFTLKISRVEAEDLGVYYCFQDSHFPFTFGSGTKLEIK
With B6, the results for the EC50 (in test [1]; with PYD domain of human ASC; with mouse ASC) were 0.1 nM, 0.12 nM and 0.11 nM, respectively. Moreover, the binding result in the test with CARD domain of human ASC was “no binding”.

B7: ACI-8016-14G5B8-AB1 (antibody, V domains shown)
VH: EVQLQESGPELVKPGSSVKISCKASGYTFADHYMNWVKQSHGKSLEWIGDINPNNGGSVYNQKFKGKATLTVDKSSSTAYMELRSLTSEDSAVYFCARRRAHYYDGPYFDYWGQGTTLTVSS
VL: DIVMTQSQKFMSTSVGDRVSLTCKASQIVGTAVAWYQQKPGQSPKLLIYSASIRYTGVPDRFTGSGSGTDFTLTISNMQSEDLADYFCQQYSNYPTFGAGTKLELK
notes: also called 936.14G5B8
With B7, the EC50 in test [1] amounted to 0.09 nM; with mouse ASC, 0.16 nM; in the test with CARD domain of human ASC, 0.17 nM. For the same molecule, in the test with PYD domain of human ASC, the binding result was “no binding”.

B8: ACI-8016-2516A8C6-AB1 (antibody, V domains shown)
VH: QVQLQQSGAELARPGASVKLSCKASGHTFTSYGISWVKQRTGQGLEWIGKIYPRSGNTYYDEKFKGKATLTADKPSTTAYMELRSLTSEDSAVYFCATRDYWGQGTTLTVSS
VL: QIVLTQSPVIMSASPGEKVTITCSASSSVSYMYWFQQKPGTSPKFWIYSTSNLASGVPARFSGSGSGTSYSLTISRMEAEDAATYYCQQRSRYPWTFGGGTKLEIK
B8: the concentration giving a half-maximal response (EC50) in test [1] stood at 0.26 nM; with PYD domain of human ASC, 0.16 nM; with mouse ASC, 0.26 nM. Moreover, in the test with CARD domain of human ASC, the binding result is given as “no binding”.

B9: ACI-8016-19E6D4-AB1 (antibody, V domains shown)
VH: EVKLVESGGGLVQPGGSLKLSCAASGFTFSDYYMYWVRQNAEKRLEWVAYISSGGDAPFYSDNLKGRFTISRDNAKNTLYLQMSRLQPEDTAMYFCAREGFYYYGLYGMDYWGQGTSVTVSS
VL: DIVLSQSPATLSVTPGDSVSLSCRASQSIGDNLHWYQQKSHESPRLIIKSASQSISGIPSRFSGSGSGTDFTLSINIVETEDFGMYFCQQSDTWPLTFGPGTKLELK
notes: also called 936.19E6D4
Turning to B9, the concentration for a half-maximal effect (EC50) was 0.1 nM in test [1] and 0.09 nM with CARD domain of human ASC. Further, the binding result with PYD domain of human ASC and with mouse ASC was “no binding” each time.

B10: ACI-8016-3E6B11-AB1 (antibody, V domains shown)
VH: EVQLQQSGAELVRPGSSVKMSCKTSGYTFTNYGITWVKQRPGQGLEWIGYIYVGNGYTEYNEKFKDKAALTSDTSSSTAYMQLTSLTSDDSTIYFCARIAQGRCFDYWGQGTTLSVSS
VL: DIVLTQSPASSAVSLGQRATISCRASQSVSTSSYSYMHWYQQKPGQPPKLLIKYASTLESGVPARFSGSGSGTDFTLNIHPVEEEDTATYYCQHSWELPYMFGGGTKLEIK
notes: also called 936.3E6B11
For the molecule B10, the EC50 in test [1] came out at 0.15 nM; with mouse ASC, 0.15 nM; with CARD domain of human ASC it was 0.13 nM. In addition, the binding result in the test with PYD domain of human ASC is “no binding”.

B11: ACI-8016-29C5E11-AB1 (antibody, V domains shown)
VH: EVQLQQSGAELVRPGSSVKMSCRTSGYTFTNNGITWVKQRPGQGLEWIGYIYVGNGYTEYNEKFKDKATLTSDTASSTVYMQLNSLTSEDSAIYFCARLDRGRALDYWAQGTTLTVSS
VL: DIVLTQSPASLAVSLGQRATISCRASKSVSSSAYSYMHWYQQKPGQPPKLLIHLASNLESGVPARFSGSGSGTDFTLNIHPVEEEDAATYYCQHSWELPYTFGGGTKLEIK
notes: also called 936.29C5E11
On to B11, for which the EC50 is 0.16 nM in test [1], 0.14 nM with mouse ASC and 0.14 nM with CARD domain of human ASC. Further, in the test with PYD domain of human ASC, the binding result is “no binding”.

B12: ACI-8016-17H1G2-AB1 (antibody, V domains shown)
VH: EVQLQQSGAELVRPGSSVKMSCKTSGFTFTSYGISWVIQRPEQGLEWIGYIYIRNGYTEYNEKFKGKATLTSDTSSNTAYMQLSNLASEDSAIYFCVRIHRRFFDYWGQGTTLTVSS
VL: DIQMTQTTSSLSASLGDRVTISCSASQGISNYLNWFQQKPNGTVRLLIYYTSSLHSGVPSRFSGSGSGTDYSLTISNLEPEDIATYYCQQYDRLPWTFGGGTKLEIK
notes: also called 936.17H1G2
As for B12, the EC50 was determined as 0.13 nM in test [1], 0.19 nM with mouse ASC and 0.1 nM with CARD domain of human ASC. Further, the binding result in the test with PYD domain of human ASC is recorded as “no binding”.

B13: ACI-8016-421B10C12D2-AB1 (antibody, V domains shown)
VH: EVQLQQSGADLVKPGASVKLSCTASGFNIEDTYIHWVKQRPARGLEWVGRIDPANGNTDYDPKFQGKATMITDTSSNTVYLQVSSLTSEDTAVYFCGRHDGYDMDYWGQGTSVTVSS
VL: DIVMSQSPSSLAVSAGEKVTMSCQSSQSLLNGRTRRNYLAWYQQKPGQSPKLLIYWASTRKSGVPDRFTGSGSGTDFTLTITSVQAEDLAVYYCKQSYNLVTFGAGTKLELK
In the case of B13, the 50% effective concentration (EC50) in test [1] came out at 0.06 nM. This molecule also gave an EC50 in the test with PYD domain of human ASC of 0.07 nM. The binding result with CARD domain of human ASC is “no binding”. In test [2], the Kd amounted to 0.36 nM, the koff was 0.00017 s⁻¹ and the kon came out at 470000 M⁻¹ s⁻¹. In test [3], this molecule returned a Kd of under 0.01 nM, a koff of 2.2e-07 s⁻¹ and a kon of 190000 M⁻¹ s⁻¹.

B14: ACI-8016-417E12A8-AB1 (antibody, V domains shown)
VH: QVQLQQPGAELVRPGASVILSCKASGYTFTSSWITWVKQRPGQGLEWIGNIYPSDSYTNSNQKFKDKATLTVDKSSSTAYMHLISPTSEDSAVYYCTRKDFVYDAWYFDVWGAGTTVTVSS
VL: DIVMTQSQKFMSTSVGDRVTVTCKASQNVGTNVAWYQQRPGQSPKPLIYSASYRNSGVPDRFTGSGSGTDFTLTITNVQSEDLAEYFCQQYNNYPLTFGAGTKLELK
In turn, B14 yielded an EC50 in test [1] of 0.07 nM. The EC50 with PYD domain of human ASC was determined as 0.06 nM. Moreover, the binding result with CARD domain of human ASC is on record as “no binding”. In test [2], this molecule came in with a Kd of 0.12 nM, a koff of 2.9e-05 s⁻¹ and a kon of 250000 M⁻¹ s⁻¹. In addition, in test [3], the Kd was under 0.01 nM, the koff was found to be 4.1e-07 s⁻¹ and the kon was determined as 110000 M⁻¹ s⁻¹.
